The numbers were not newly measured in PMC12362618, “Development of the First Small-Molecule Inhibitor Targeting Oncostatin M for Treatment of Breast Cancer” (Journal of Medicinal Chemistry, 2025), which cites them from elsewhere.

Broadly, the Kd is the free concentration of one partner at which half of the binding sites on the other are occupied at equilibrium, for simple one-to-one binding.

The data set concerns the target gp130 (Homo sapiens) (UniProt P40189).

Sequence of OSM (P13725 26-221): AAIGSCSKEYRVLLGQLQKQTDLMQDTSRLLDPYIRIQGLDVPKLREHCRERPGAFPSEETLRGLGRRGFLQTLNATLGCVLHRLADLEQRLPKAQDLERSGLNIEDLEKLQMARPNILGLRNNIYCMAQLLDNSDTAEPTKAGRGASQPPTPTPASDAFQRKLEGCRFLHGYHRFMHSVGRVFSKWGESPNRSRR
Sequence of gp130 (Homo sapiens) (P40189 23-619): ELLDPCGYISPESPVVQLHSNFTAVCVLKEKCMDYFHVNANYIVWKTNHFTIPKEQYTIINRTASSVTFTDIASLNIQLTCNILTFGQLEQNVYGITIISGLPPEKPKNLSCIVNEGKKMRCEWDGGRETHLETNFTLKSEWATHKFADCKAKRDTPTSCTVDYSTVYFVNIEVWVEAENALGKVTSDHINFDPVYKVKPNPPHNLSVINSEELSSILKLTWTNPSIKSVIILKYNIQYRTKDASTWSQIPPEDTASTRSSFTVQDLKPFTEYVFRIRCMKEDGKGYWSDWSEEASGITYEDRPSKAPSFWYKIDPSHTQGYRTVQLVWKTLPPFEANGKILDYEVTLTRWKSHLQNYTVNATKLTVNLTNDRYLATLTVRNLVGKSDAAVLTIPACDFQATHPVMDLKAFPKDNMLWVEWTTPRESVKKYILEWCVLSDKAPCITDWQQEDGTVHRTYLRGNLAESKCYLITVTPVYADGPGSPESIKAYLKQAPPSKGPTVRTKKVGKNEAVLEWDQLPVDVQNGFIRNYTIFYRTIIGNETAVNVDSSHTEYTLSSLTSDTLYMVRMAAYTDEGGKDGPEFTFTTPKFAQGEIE

Turning to OSM (from UniProt P13725), the Kd was 22.7 nM.
